Test results as given in patent US6818749.

Key:
[1] = target: TAG72 positive bovine submaxillary mucin (BSM) (bovine); test: relative affinity constant from competition RIA on BSM
[2] = target: anti-CC49 variable region (anti-idiotypic) antibodies in the serum of patient two; test: HPLC size exclusion; 5 µg cold competitor + ^125I-HuCC49 + patient serum; less complex = more competition
[3] = target: anti-CC49 variable region (anti-idiotypic) antibodies in the serum of patient one; test: as above
[4] = target: anti-CC49 variable region (anti-idiotypic) antibodies in the serum of patient six; test: as above
[5] = target: anti-CC49 variable region (anti-idiotypic) antibodies in the serum of patient four; test: as above
[6] = target: anti-CC49 variable region (anti-idiotypic) antibodies in the serum of patient three; test: as above
[7] = target: anti-CC49 variable region (anti-idiotypic) antibodies in the serum of patient five; test: as above
[8] = target: mouse anti-idiotypic MAb AI49-1 (γ-subset); test: competition RIA vs ^125I-murine CC49 on adsorbed AI49-1
[9] = target: mouse anti-idiotypic MAb AI49-3 (β-subset); test: competition RIA vs ^125I-murine CC49 on adsorbed AI49-3
[10] = target: anti-idiotypic antibodies to MAb CC49 in the serum of one patient (not named, Example V); test: HPLC size-exclusion competition: cold competitor vs ^125I-HuCC49 for complex formation with patient serum
[11] = target: anti-CC49 variable region (anti-idiotypic) antibodies in the serum of patient two; test: HPLC size exclusion; ^125I-HuCC49 + patient serum, no competitor
[12] = target: anti-CC49 variable region (anti-idiotypic) antibodies in the serum of patient one; test: as above
[13] = target: anti-CC49 variable region (anti-idiotypic) antibodies in the serum of patient six; test: as above
[14] = target: anti-CC49 variable region (anti-idiotypic) antibodies in the serum of patient four; test: as above
[15] = target: anti-CC49 variable region (anti-idiotypic) antibodies in the serum of patient three; test: as above
[16] = target: anti-CC49 variable region (anti-idiotypic) antibodies in the serum of patient five; test: as above
[17] = target: anti-CC49 variable region (anti-idiotypic) antibodies in the serum of patient two; test: HPLC competition, serial dilutions of cold competitor vs ^125I-HuCC49 with serum of patient two

fold less than the Ka of HuCC49 [1] [fold] | Binder | percent of complexes [2] [%] | percent of complexes [3] [%] | percent of complexes [4] [%] | percent of complexes [5] [%] | percent of complexes [6] [%] | percent of complexes [7] [%] | fold more competitor for 50% inhibition than HuCC49 [8] [fold] | fold more competitor for 50% inhibition than HuCC49 [9] [fold] | fold better competition than parental HuCC49 [10] [fold] | percent of complexes [11] [%] | percent of complexes [12] [%] | percent of complexes [13] [%] | percent of complexes [14] [%] | percent of complexes [15] [%] | percent of complexes [16] [%] | amount of competitor for 25% competition [17] [ng]
2 | HuCC49 CDR variant L-1 (antibody, V domains shown) VH: QVQLVQSGAEVVKPGASVKISCKASGYTFTDHAIHWVKQNPGQRLEWIGYFSPGNDDFKYNERFKGKATLTADTSASTAYVELSSLRSEDTAVYFCTRSLNMAYWGQGTLVTVSS VL: DIVMSQSPDSLAVSLGERVTLNCKSSQSVLYSSNSKNYLAWYQQKPGQSPKLLIYWASARESGVPDRFSGSGSGTDFTLTISSVQAEDVAVYYCQQYYSYPLTFGAGTKLELK | 16.9 | 12.2 | 16 | 10.1 | 9.8 | 14.3 |  |  |  |  |  |  |  |  |  | 
 | HuCC49 CDR variant H-1 (antibody, V domains shown) VH: QVQLVQSGAEVVKPGASVKISCKASGYTFTSYAMHWVKQNPGQRLEWIGYFSPGNDDFKYNERFKGKATLTADTSASTAYVELSSLRSEDTAVYFCTRSLNMAYWGQGTLVTVSS VL: DIVMSQSPDSLAVSLGERVTLNCKSSQSLLYSGNQKNYLAWYQQKPGQSPKLLIYWASARESGVPDRFSGSGSGTDFTLTISSVQAEDVAVYYCQQYYSYPLTFGAGTKLELK | 5.8 | 3.9 | 10.2 | 7 | 3.3 | 3.5 |  |  |  |  |  |  |  |  |  | 
 | HuCC49 CDR variant H-3 (antibody, V domains shown) VH: QVQLVQSGAEVVKPGASVKISCKASGYTFTDHAIHWVKQNPGQRLEWIGYFSPGNDDFKYNERFKGKATLTADTSASTAYVELSSLRSEDTAVYFCTRGGYYGSGSGSNYWGQGTLVTVSS VL: DIVMSQSPDSLAVSLGERVTLNCKSSQSLLYSGNQKNYLAWYQQKPGQSPKLLIYWASARESGVPDRFSGSGSGTDFTLTISSVQAEDVAVYYCQQYYSYPLTFGAGTKLELK | 6.7 | 5.1 | 7.3 | 8.2 | 3.7 | 4.6 |  |  |  |  |  |  |  |  |  | 
2 to 3 | HuCC49 variant ^97L1,2 (antibody, V domains shown) VH: QVQLVQSGAEVVKPGASVKISCKASGYTFTDHAIHWVKQNPGQRLEWIGYFSPGNDDFKYNERFKGKATLTADTSASTAYVELSSLRSEDTAVYFCTRSLNMAYWGQGTLVTVSS VL: DIVMSQSPDSLAVSLGERVTLNCKSSQSVLYSSNSKNYLAWYQQKPGQSPKLLIYWASTRESGVPDRFSGSGSGTDFTLTISSVQAEDVAVYYCQQYYSYPLSFGAGTKLELK |  |  |  |  |  |  |  |  |  |  |  |  |  |  |  | 
300 | HuCC49 CDR variant H-2 (antibody, V domains shown) VH: QVQLVQSGAEVVKPGASVKISCKASGYTFTDHAIHWVKQNPGQRLEWIGWINAGNGNTKYSQKFQGKATLTADTSASTAYVELSSLRSEDTAVYFCTRSLNMAYWGQGTLVTVSS VL: DIVMSQSPDSLAVSLGERVTLNCKSSQSLLYSGNQKNYLAWYQQKPGQSPKLLIYWASARESGVPDRFSGSGSGTDFTLTISSVQAEDVAVYYCQQYYSYPLTFGAGTKLELK | 29.7 | 32.5 | 32.7 | 24.7 | 12.7 | 36.6 | 4 to 15 | 4 to 15 |  |  |  |  |  |  |  | 
2 | HuCC49 CDR variant L-1,2 (antibody, V domains shown) VH: QVQLVQSGAEVVKPGASVKISCKASGYTFTDHAIHWVKQNPGQRLEWIGYFSPGNDDFKYNERFKGKATLTADTSASTAYVELSSLRSEDTAVYFCTRSLNMAYWGQGTLVTVSS VL: DIVMSQSPDSLAVSLGERVTLNCKSSQSVLYSSNSKNYLAWYQQKPGQSPKLLIYWASTRESGVPDRFSGSGSGTDFTLTISSVQAEDVAVYYCQQYYSYPLTFGAGTKLELK | 15.7 | 24.5 | 24.6 | 19.4 | 12.6 | 20.2 |  |  |  |  |  |  |  |  |  | 
 | HuCC49 CDR variant L-2 (antibody, V domains shown) VH: QVQLVQSGAEVVKPGASVKISCKASGYTFTDHAIHWVKQNPGQRLEWIGYFSPGNDDFKYNERFKGKATLTADTSASTAYVELSSLRSEDTAVYFCTRSLNMAYWGQGTLVTVSS VL: DIVMSQSPDSLAVSLGERVTLNCKSSQSLLYSGNQKNYLAWYQQKPGQSPKLLIYWASTRESGVPDRFSGSGSGTDFTLTISSVQAEDVAVYYCQQYYSYPLTFGAGTKLELK | 3 | 3.4 | 2.7 | 4.4 | 2.7 | 2.4 |  |  | 2 |  |  |  |  |  |  | 
 | HuCC49 CDR variant L-3 (antibody, V domains shown) VH: QVQLVQSGAEVVKPGASVKISCKASGYTFTDHAIHWVKQNPGQRLEWIGYFSPGNDDFKYNERFKGKATLTADTSASTAYVELSSLRSEDTAVYFCTRSLNMAYWGQGTLVTVSS VL: DIVMSQSPDSLAVSLGERVTLNCKSSQSLLYSGNQKNYLAWYQQKPGQSPKLLIYWASARESGVPDRFSGSGSGTDFTLTISSVQAEDVAVYYCQQYYSTPYSFGAGTKLELK | 33.5 | 48.2 | 34.8 | 37.6 | 22.4 | 46.7 |  |  |  |  |  |  |  |  |  | 
 | humanized monoclonal antibody HuCC49 (parental HuCC49) (antibody, V domains shown) VH: QVQLVQSGAEVVKPGASVKISCKASGYTFTDHAIHWVKQNPGQRLEWIGYFSPGNDDFKYNERFKGKATLTADTSASTAYVELSSLRSEDTAVYFCTRSLNMAYWGQGTLVTVSS VL: DIVMSQSPDSLAVSLGERVTLNCKSSQSLLYSGNQKNYLAWYQQKPGQSPKLLIYWASARESGVPDRFSGSGSGTDFTLTISSVQAEDVAVYYCQQYYSYPLTFGAGTKLELK | 1.5 | 0 | 0 | 0.5 | 2.6 | 3 |  |  |  | 32.2 | 46.2 | 33.5 | 56.8 | 24.5 | 42.9 | 60
